The values that follow come from PMC2861366.

Common to all, as to assay: ITC
In general terms: Isothermal titration calorimetry measures the heat released or taken up as one component is titrated into another.

Test [1] addresses SSB tetramer-(dT)70 1:1 complex (fully wrapped (SSB)65-like) (UniProt P0AGE0).
Test [2] deals with P9, SSB C-terminal 9-mer peptide (UniProt P0AGE0).
Test [3] deals with SSB (single-stranded DNA binding protein), full length (UniProt P0AGE0). The following applies: pH 7.0, 25 °C, 0.2 M NaCl, buffer C: 10 mM cacodylate.
Chain of SSB (single-stranded DNA binding protein), full length (P0AGE0 whole entry): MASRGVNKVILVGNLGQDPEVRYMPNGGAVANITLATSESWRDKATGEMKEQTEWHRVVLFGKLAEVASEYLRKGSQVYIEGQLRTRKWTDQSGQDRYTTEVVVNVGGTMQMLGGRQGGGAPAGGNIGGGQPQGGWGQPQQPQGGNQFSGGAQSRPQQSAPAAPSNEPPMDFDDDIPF
The target of test [4] is P15, SSB C-terminal 15-mer peptide (UniProt P0AGE0).
The target in test [5] is SSB tetramer-(dT)70 1:1 complex (fully wrapped (SSB)65-like) (UniProt P0AGE0). The following applies: pH 8.1, 25 °C, 20 mM NaCl, buffer H: 10 mM Hepes.
Chain of SSB tetramer-(dT)70 1:1 complex (fully wrapped (SSB)65-like) (P0AGE0 whole entry, one chain of several): as the sequence (P0AGE0 whole entry) above
Where [6] appears, read: pH 7.0, 25 °C, 0.2 M NaCl, buffer C: 10 mM cacodylate.
The mark [7] stands for this setting: pH 7.0, 25 °C, 20 mM NaCl, buffer C: 10 mM cacodylate, pH 7.0.
The mark [8] stands for this setting: pH 7.5, 25 °C, 20 mM NaCl, buffer T: 10 mM Tris.
The mark [9] stands for this setting: pH 7.5, 25 °C, 20 mM NaCl, buffer T: 10 mM Tris, pH 7.5.
Where [10] appears, read: pH 7.5, 25 °C, 0.2 M NaCl, buffer T: 10 mM Tris.
Where [11] appears, read: pH 7.0, 25 °C, 200 mM NaCl, buffer C: 10 mM cacodylate, pH 7.0.

Chain of P9, SSB C-terminal 9-mer peptide (P0AGE0 whole entry, looked up, tested part not stated): as the sequence (P0AGE0 whole entry) above

As for “χ (chi) subunit of DNA polymerase III holoenzyme (HolC)”, the Kobs entry in test [1] (setting [6]) was “(5.4±1.0)×10^5 M^−1”; in test [1] (setting [7]), “(7.6±1.6)×10^6 M^−1”; in test [1] (pH 8.1, 25 °C, 20 mM NaCl, buffer H: 10 mM Hepes), “(5.5±0.8)×10^6 M^−1”; in test [3] it was “(3.0±0.7)×10^5 M^−1”; in test [5], “(3.8±0.4)×10^6 M^−1”. For the same substance, the ΔHobs in test [1] (setting [7]) was -8.7 kcal/mol; in test [1] (pH 8.1, 25 °C, 20 mM NaCl, buffer H: 10 mM Hepes, pH 8.1) it was -8.9 kcal/mol. In addition, the K (observed association constant) in test [2] (setting [7]) turned out to be 1.6e+06 M⁻¹; in test [2] (setting [9]), 800000 M⁻¹; in test [4] (setting [7]), 1.5e+06 M⁻¹; in test [4] (setting [9]), 800000 M⁻¹. Also, the ΔH (observed) in test [2] (setting [7]) is -7.9 kcal/mol; in test [2] (setting [8]), -8.2 kcal/mol; in test [4] (setting [7]) it was -9.5 kcal/mol; in test [4] (setting [8]), -7.7 kcal/mol.

Consider PriA helicase (primosomal protein N'), for which the Kobs result in test [1] (setting [6]) is “(3.7±0.5)×10^6 M^−1”; in test [1] (setting [10]), “(1.9±0.5)×10^6 M^−1”. In addition, the figures for the ΔHobs in test [1] (setting [6]) and in test [1] (setting [10]) were -18.3 kcal/mol and -8.6 kcal/mol, respectively. The K (observed association constant) in test [2] (setting [11]) worked out at 180000 M⁻¹; in test [2] (setting [9]), 2e+06 M⁻¹; in test [4] (setting [7]), 2.7e+06 M⁻¹; in test [4] (setting [11]), 360000 M⁻¹; in test [4] (setting [9]), 1.6e+06 M⁻¹. For the same substance, the ΔH (observed) is -6.7 kcal/mol in test [2] (setting [9]), -20.7 kcal/mol in test [4] (setting [7]) and -7 kcal/mol in test [4] (setting [9]). The same substance gave a protons absorbed on complex formation in test [4] (pH 7.0-7.5, 25 °C, 20 mM NaCl, buffer T: 10 mM Tris, pH 7.5) of 1 protons.
